{"source": "FireProtDB (doi:10.1002/cbic.201402128)", "proteins": {"B1": {"name": "Haloalkane dehalogenase wild type, D4Z2G1 (protein)", "chain": "MSLGAKPFGEKKFIEIKGRRMAYIDEGTGDPILFQHGNPTSSYLWRNIMPHCAGLGRLIACDLIGMGDSDKLDPSGPERYAYAEHRDYLDALWEALDLGDRVVLVVHDWGSALGFDWARRHRERVQGIAYMEAIAMPIEWADFPEQDRDLFQAFRSQAGEELVLQDNVFVEQVLPGLILRPLSEAEMAAYREPFLAAGEARRPTLSWPRQIPIAGTPADVVAIARDYAGWLSESPIPKLFINAEPGALTTGRMRDFCRTWPNQTEITVAGAHFIQEDSPDEIGAAIAAFVRRLRPA"}}, "conditions": "Sphingobium indicum (strain DSM 16413 / CCM 7287 / MTCC 6362 / UT26 / NBRC 101211 / UT26S); pH 7.5; Thermal; fluorescence; Na-Hepes 50 mM; reversible: no; whole UniProt chain shown", "note": "Where “and” joins values, the source holds several entries; their conditions need not be identical. Identical values can stand only once.", "data": [{"protein": "B1", "values": [{"measurement": "Tm", "value": "51 °C and 49 °C"}]}]}
